Experiments:
[1] = target: human insulin receptor extracellular domain (HIR ECD) (human) (UniProt P06213); experiment: ELISA, HIR ECD plated; against HIR Ab alone
[2] = target: human insulin receptor extracellular domain (HIR ECD) (human) (UniProt P06213); experiment: ELISA, HIR ECD plated (HIR receptor assay)
[3] = target: human insulin receptor extracellular domain (HIR ECD) (human) (UniProt P06213); experiment: ELISA, HIR ECD plated, biotinylated goat anti-human IgG detection

| Substance | reduction in receptor binding affinity [1] | EC50 [2] | EC50 [3] |
| --- | --- | --- | --- |
| GUSB-HIR Ab fusion protein (GUSB fused to the amino terminus of the HIR Ab heavy chain) (from UniProt P08236 23-633) (antibody) | 95% | 4.8 nM | – |
| HIR Ab-GUSB fusion protein (GUSB fused to the carboxyl terminus of the HIR Ab heavy chain) (from UniProt P08236 23-633) (antibody) | – | – | 0.81 nM |

— US20240252667A1
